The source of these data is patent publication US20230392166A1.

The assay addresses GFP-BAX fusion protein. As to the kind of experiment: cell-based or functional assay.

Regarding “mCherry-BCLXL fusion protein (from UniProt Q64373 1-233)”, the percentage of cells with punctate GFP-BAX (translocation to mitochondria) within 3.5 h after 1 µM staurosporine, live imaging of D407 cells was determined as 8%.

mCherry displayed a percentage of cells with GFP-BAX translocation to mitochondria within 3.5 h after 1 µM staurosporine, live imaging of D407 cells (control without BCLXL) above 95%.
